Key:
[1] = target: human full-length ELMO1 (ELMO1^FL, residues 1-727) (human, UniProt Q92556 1-727); assay: cryo-EM structure; DOCK5^ΔC/ELMO1^FL/Rac1^G15A (0.9 μM) mixed with RhoG^Q61L (15 μM), cross-linked with 1 mM BS3, SEC; 20 mM HEPES-NaOH pH 8.0, 300 mM NaCl, 1 mM TCEP, 0.06% digitonin; details: both partners purified
[2] = target: C-terminal truncated DOCK5 (DOCK5^ΔC, residues 1-1642) (human, UniProt Q9H7D0 1-1642); assay: as above; details: both partners purified

binding result [1]: binds
binding result [2]: binds
B1: constitutively active RhoG^Q61L mutant (GTPase domain, residues 1-184) (domain or fragment)
chain: not shown
